Results: patent US20050266509
Where a chain is given by its changes, count along the chain named.

B1: PTPMEG, full length clone (amino-terminal myc-tag, c-terminal HA tag) (protein)
chain: MTSRFRLPAGRTYNVRASELARDRQHTEVVCNILLLDNTVQAFKVNKHDQGQVLLDVVFKHLDLTEQDYFGLQLADDSTDNPRWLDPNKPIRKQLKRGSPYSLNFRVKFFVSDPNKLQEEYTRYQYFLQIKQDILTGRLPCPSNTAALLASFAVQSELGDYDQSENLSGYLSDYSFIPNQPQDFEKEIAKLHQQHIGLSPAEAEFNYLNTARTLELYGVEFHYARDQSNNEIMIGVMSGGILIYKNRVRMNTFPWLKIVKISFKCKQFFIQLRKELHESRETLLGFNMVNYRACKNLWKACVEHHTFFRLDRPLPPQKNFFAHYFTLGSKFRYCGRTEVQSVQYGKEKANKDRVFARSPSKPLARKLMDWEVVSRNSISDDRLETQSLPSRSPPGTPNHRNSTFTQEGTRLRPSSVGHLVDHMVHTSPSEVFVNQRSPSSTQANSIVLESSPSQETPGDGKPPALPPKQSKKNSWNQIHYSHSQQDLESHINETFDIPSSPEKPTPNGGIPHDNLVLIRMKPDENGRFGFNVKGGYDQKMPVIVSRVAPGTPADLCVPRLNEGDQVVLINGRDIAEHTHDQVVLFIKASCERHSGELMLLVRPNAVYDVVEEKLENEPDFQYIPEKAPLDSVHQDDHSLRESMIQLAEGLITGTVLTQFDQLYRKKPGMTMSCAKLPQNISKNRYRDISPYDATRVILKGNEDYINANYINMEIPSSSIINQYIACQGPLPHTCTDFWQMTWEQGSSMVVMLTTQVERGRVKCHQYWPEPTGSSSYGCYQVTCHSEEGNTAYIFRKMTLFNQEKNESRPLTQIQYIAWPDHGVPDDSSDFLDFVCHVRNKRAGKEEPVVVHCSAGIGRTGVLITMETAMCLIECNQPVYPLDIVRTMRDQRAMMIQTPSQYRFVCEAILKVYEEGFVKPLTTSTNK
B2: PTPMEG-CS (inactive PTPase), full length clone (amino-terminal myc-tag, c-terminal HA tag) (protein)
chain: B1 chain with C852S

Legend:
[1] = target: NR2B, full length clone (NMDA receptor subunit), Q13224
[2] = target: constitutive active Src kinase

Chain of NR2B, full length clone (NMDA receptor subunit), Q13224 (Q13224 27-1484): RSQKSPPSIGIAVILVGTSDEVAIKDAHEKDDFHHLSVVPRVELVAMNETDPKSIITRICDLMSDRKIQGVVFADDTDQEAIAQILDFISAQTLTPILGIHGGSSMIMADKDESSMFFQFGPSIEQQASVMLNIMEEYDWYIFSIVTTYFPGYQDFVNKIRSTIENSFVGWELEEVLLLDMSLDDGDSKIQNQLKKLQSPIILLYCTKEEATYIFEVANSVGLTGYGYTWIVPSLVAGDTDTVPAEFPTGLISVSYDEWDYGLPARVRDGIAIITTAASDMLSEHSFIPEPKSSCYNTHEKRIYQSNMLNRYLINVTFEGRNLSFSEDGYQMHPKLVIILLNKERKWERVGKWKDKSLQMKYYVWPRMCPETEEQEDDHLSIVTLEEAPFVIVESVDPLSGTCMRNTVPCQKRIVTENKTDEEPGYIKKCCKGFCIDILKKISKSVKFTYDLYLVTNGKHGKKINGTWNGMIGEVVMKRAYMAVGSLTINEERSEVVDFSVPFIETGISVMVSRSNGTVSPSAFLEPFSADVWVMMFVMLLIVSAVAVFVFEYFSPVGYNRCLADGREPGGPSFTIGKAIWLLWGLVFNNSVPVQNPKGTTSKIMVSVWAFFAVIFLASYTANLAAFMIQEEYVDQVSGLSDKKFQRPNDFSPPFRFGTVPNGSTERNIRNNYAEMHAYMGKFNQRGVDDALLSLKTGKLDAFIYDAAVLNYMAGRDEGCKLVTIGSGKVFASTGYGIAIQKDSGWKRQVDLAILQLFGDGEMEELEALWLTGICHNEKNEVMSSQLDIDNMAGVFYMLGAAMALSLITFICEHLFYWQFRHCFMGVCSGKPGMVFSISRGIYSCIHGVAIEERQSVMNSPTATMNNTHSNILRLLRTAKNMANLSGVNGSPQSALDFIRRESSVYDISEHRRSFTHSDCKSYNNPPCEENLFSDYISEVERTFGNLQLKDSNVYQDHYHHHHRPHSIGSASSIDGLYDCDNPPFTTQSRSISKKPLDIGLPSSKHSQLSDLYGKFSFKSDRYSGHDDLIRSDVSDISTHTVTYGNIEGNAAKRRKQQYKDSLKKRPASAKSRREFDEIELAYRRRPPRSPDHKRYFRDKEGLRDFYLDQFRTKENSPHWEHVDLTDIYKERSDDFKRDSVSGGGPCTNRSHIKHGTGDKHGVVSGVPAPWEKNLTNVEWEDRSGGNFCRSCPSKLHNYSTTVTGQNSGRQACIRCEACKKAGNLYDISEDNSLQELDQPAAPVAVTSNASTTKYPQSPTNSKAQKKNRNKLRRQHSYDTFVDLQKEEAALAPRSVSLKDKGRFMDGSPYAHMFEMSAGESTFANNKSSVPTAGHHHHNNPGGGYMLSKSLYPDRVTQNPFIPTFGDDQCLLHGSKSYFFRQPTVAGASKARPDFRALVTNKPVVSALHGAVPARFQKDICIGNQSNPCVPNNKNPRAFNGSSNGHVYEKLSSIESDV

Protein | NR2B tyrosine phosphorylation, western blot with an NR2B phosphospecific antibody [1] | Src phosphorylation at position 418, western blot with anti PY418 antibody [2] | phosphorylation at Y418, western blot with a Src/fyn specific phosphoantibody [2] | NR2B tyrosine phosphorylation, western blot [1] | Src phosphorylation at position 418, western blot [2]
B1 | In presence of the active wildtype PTPMEG phosphatase, both the NR2B subunit as well as Src kinase were dephosphorylated | In presence of the active wildtype PTPMEG phosphatase, both the NR2B subunit as well as Src kinase were dephosphorylated | In presence of PTPMEG (identified with a c-myc antibody from Upstate) there is a dephosphorylation of Src and fyn at position Y418 |  | 
B2 |  |  |  | Dephosphorylation of NR2B and Src kinase was reversed by addition of dephostatin, and unaffected in presence of the dominant negative form of PTPMEG (CS) | Dephosphorylation of NR2B and Src kinase was reversed by addition of dephostatin, and unaffected in presence of the dominant negative form of PTPMEG (CS)
